Experimental data as given in the supplement of paper PMC9170038.

Test system: MS2 coat protein
Assay: apparent KD of MS2 coat protein; designed switch direction (-1 OFF switch, 1 ON switch): -1; higher = weaker reporter binding
In short: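 On Illumina chips, designed RNA switches with common flanks were made by stalled E. coli RNA polymerase. Titrations with SNAP-549-labelled MS2 coat protein, doubling from 0.7 or 1.5 nM to 3 µM, were done with no input, with 200 uM small-molecule ligand, or with an oligonucleotide input. Apparent KD is the median per design over clusters, from curve fits of normalised cluster fluorescence.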

[1] = input ligand: microRNA oligo, concentration not stated
[2] = Eterna round: R95, input ligand: FMN 200 uM
[3] = Eterna round: R95, input ligand: microRNA oligo, concentration not stated
[4] = Eterna round: R95, input ligand: none

Sequence | apparent KD of MS2 coat protein (input ligand: FMN 200 uM) | apparent KD of MS2 coat protein [1] | apparent KD of MS2 coat protein (input ligand: none) | apparent KD of MS2 coat protein [2] | apparent KD of MS2 coat protein [3] | apparent KD of MS2 coat protein [4]
AUAAAUCAUGUAGGAUAUGCGUGGCAAAGCUAUGCAGAAGGACAUGAGGAUCACCCAUGUGCUUCCGUCUGAGAACAGACGGUA [Mat - Exclusion NG 1 - Mod of JL - D24] (Eterna round: R96, puzzle: Exclusion NG 1) | 130 nM | 61.6 nM | 82.3 nM |  |  | 
AUAACAAGCUUUUUGUUCGUAGAACAUGACGCUCGAGUCACAUGAGGAUCACCCAUGUCAUCCAGAUUGAUAGUUGA [JR_SV3TOV2_Sub059] (puzzle: Sensor v3, turn-off variant 2) |  |  |  | 35.5 nM | 47.3 nM | 44.3 nM
AUAAGGCUAGGAUAUGCAUGUGGCACAGCUCAGAAAAUAAGACAUGAGGAUCACCCAUGUAGAAGGAGCAUGCC [EX2 A.30] (Eterna round: R97, puzzle: Exclusion 2) | 19.4 nM |  | 16.2 nM |  |  | 
AUAAUAAAGGAGGAUAUCGUUACGGAAACGUAACGAGAAGGUCUAACAUGAGGAUCACCCAUGUUCCUCAAAUA [Mat - Exclusion 6 - Eli Mod - D53] (puzzle: Exclusion 6) |  |  |  | 49.9 nM | 36.4 nM | 37.4 nM
AUAAUGUAAGGAUAUCAGUCGUAAUUUAAUUUAAUAUCGACUGAGAAGGUACAUGAGGAUCACCCAUGUGGUCA [E4/9-B2] (Eterna round: R97, puzzle: Exclusion 4) | 148 nM |  | 574 nM |  |  | 
AUAAUUUAAGUGAGGAUAUACCUAUGGAAACAUAGGUAGAAGGCACAUGAGGAUCACCCAUGUUCCUAUACAAA [Fiskers BMX 4 - 1] (puzzle: Brourd's mod of Exclusion 4) |  |  |  | 16.5 nM | 12.7 nM | 9.08 nM
AUAAUUUAAGUGAGGAUAUACCUAUGGAAACAUAGGUAGAAGGCACAUGAGGAUCACCCAUGUUUUUACACAAA [Fiskers BMX 4 - 2] (puzzle: Brourd's mod of Exclusion 4) |  |  |  |  | 18.1 nM | 
AUACCACGAGGAUAUCGUCUAUAUUACAUGAGGAUCACCCAUGUUAUAUUUGUAAUGUUUCGAGAAGGCGUGUUUU [JR_E5_Sub081] (puzzle: Exclusion 5) |  |  |  |  | 14.4 nM | 
AUACCAUGCCGCCUAAUAGCUUUUUGCUCGUCUUAUAAAACAUGAGGAUCACCCAUGUAAAACAUGUGGCGUGACCC [Maridi] (Eterna round: R96, puzzle: Sensor v3, turn-off variant 2) | 422 nM | 52.9 nM | 329 nM |  |  | 
AUACCAUGCCGCCUAAUAGCUUUUUGCUCGUCUUAUAAAACAUGAGGAUCACCCAUGUAAAACAUGUGGCGUGACCC [Maridi] (puzzle: Sensor v3, turn-off variant 2) |  |  |  | 163 nM | 12.5 nM | 97.4 nM
AUACCCAGAGGAUAUGCCGCUGGGUGCCCUCUGCAUAAAACACUUGAGGAUCACCCAAGUAGAAGGCUGGGCUC [Leiseses] (Eterna round: R97, puzzle: Exclusion 2) | 173 nM |  | 78.1 nM |  |  | 
AUAGCUCGUGUUAGGAUAUCCGCAUAUUUUACAUAGGAGAAGGAACAUGAGGAUCACCCAUGUAAUAGAAAAGA [Maenri] (puzzle: Brourd's mod of Exclusion 4) |  |  |  | 138 nM | 101 nM | 74.7 nM
AUAUAGAUAGUCAGGAUAUACUAGUGAUAACAGUAGUAGAAGGGACAUGAGGAUCACCCAUGUAGAUACUGCAC [Brourd's EX4 #2] (Eterna round: R97, puzzle: Brourd's mod of Exclusion 4) | 22.2 nM |  | 21.2 nM |  |  | 
AUAUAGCGAGGAUAUACAUGAGGAUCACCCAUGUGGUAGUAGAUACGGUAGAGAUAGUGUAGAAGGCGCUAUGA [EX3 #9] (Eterna round: R97, puzzle: Exclusion 3) | 226 nM |  | 233 nM |  |  | 
AUAUAGUCAGGAUAUCGAAAUAUAUAUUAAUAUAUAUAAUACGAGAAGGGACAUGAGGAUCACCCAUGUAGUAA [JR_Exclusion4)Sub001] (puzzle: Exclusion 4) |  |  |  |  | 23.7 nM | 
AUAUUGUGAGGAUAUGAACUUACUAUCGAAAGAUACUAAGUUCAGAAGGCACAUGAGGAUCACCCAUGUUUCUC [Long static hairpin v19] (Eterna round: R97, puzzle: Exclusion 4) | 664 nM |  | 76.1 nM |  |  | 
AUAUUGUGAGGAUAUGAACUUAGUAUGGAAAGAUACUAAGUUCAGAAGGCACAUGAGGAUCACCCAUGUUUCUC [Long static hairpin v12] (Eterna round: R97, puzzle: Exclusion 4) | 34 nM |  | 26.9 nM |  |  | 
AUAUUUAGCUUUUUGUGAAACAUGAGGAUCACCCAUGUCCUCAUAACUGGACAUUUAAGUCUAGAAGCUCGUCUUAU [Last end dangle 3] (Eterna round: R97, puzzle: Sensor, turn-off variant 1) | 475 nM |  | 553 nM |  |  | 
AUCAGCUCGUCAGGAUAUACAUGAGGAUCACCCAUGUGAUCAAUAGCAGCUUCGGCUGCAUUAAUGUAGAAGGGACGAGCUGAU [ENG2/5-B3] (Eterna round: R96, puzzle: Exclusion NG 2) | 175 nM | 75 nM | 407 nM |  |  | 
AUCAGCUCGUGAGGAUAUACAUGAGGAUCACCCAUGUGAUCAAUAGCAGCUUCGGCUGCAUACAUGUAGAAGGCACGAGCUGAU [ENG2/6-A3] (Eterna round: R96, puzzle: Exclusion NG 2) | 95.6 nM | 19.9 nM | 135 nM |  |  | 
AUCAGUCUAGAGGAUAUGCUGGAUUAAUAUCUGGCAGAAGGCUGGACAUGAGGAUCACCCAUGUAAAUACUACC [Omei Ex6 A4] (Eterna round: R97, puzzle: Exclusion 6) | 156 nM |  | 55 nM |  |  | 
AUCAUGCAGUAGGAUAUCGAUCCACAAUAUGAACGAGAAGGGCUGACAUGAGGAUCACCCAUGUGCGUCCGAAG [Becebe] (Eterna round: R97, puzzle: Exclusion 6) | 16.7 nM |  | 19 nM |  |  | 
AUCAUGUGAGGAUAUGUGAUCAACCUUCUAUAUAGAUGAUGACAGAAGGCACAUGAGGAUCACCCAUGUAGAUC [Ex4 - 3 - 20] (puzzle: Exclusion 4) |  |  |  |  | 45.1 nM | 
